Laboratory results published in patent publication US7208311B2, “Catalytic domain of ADAM33 and methods of use thereof” (Schering Corporation, priority 2002, dated 2007).
Numbering of substitutions follows the chain as printed. Names and notes keep the numbering of the source.

How the values were obtained:
[1] = molecular target: T1, ADAM33 (Homo sapiens, UniProt Q9BZ11); test: HPLC inhibition assay, ADAM33cat with KL-1 peptide substrate; format: biochemical; details: ADAM33cat 80 nM, KL-1 peptide 100 μM, 2 h RT
T1 construct: made in house; host or cells: Drosophila melanogaster S2 cells
T1 sequence (Q9BZ11 204-409 limits assumed): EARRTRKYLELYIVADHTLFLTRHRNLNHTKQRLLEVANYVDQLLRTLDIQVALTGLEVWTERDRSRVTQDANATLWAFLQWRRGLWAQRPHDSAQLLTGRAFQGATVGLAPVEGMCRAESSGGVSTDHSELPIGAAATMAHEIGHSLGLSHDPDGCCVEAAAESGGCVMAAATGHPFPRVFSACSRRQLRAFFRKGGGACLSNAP
Protocol: The inhibition dissociation constants (Ki) for inhibitors were determined as follows: an HPLC assay was performed in the presence or absence of inhibitors for 2 h at RT using ADAM33cat (80 nM) and KL-1 peptide substrate (100 μM). For testing tissue inhibitor of metalloproteinases (TIMPs), ADAM33 and human TIMPs were pre-incubated for 1 h at RT. […] Initial velocities were calculated by dividing cleaved product over reaction time. The initial velocities were plotted as a function of inhibitor concentration. For tight binding inhibitors (IK682, TIMP-3), the apparent inhibitor dissociation constants (Ki app values) were calculated by fitting the curve to the following modified Morrison's equation: vi=vo{[(Eo−Io−Ki^app)^2+4 Ki^appEo]^1/2+(Eo−IoKI^app)}/2Eo where Ki^app=Ki(1+S/Km), vo is the uninhibited initial velocity, vi is the initial velocity in the presence of inhibitor at any given inhibitor concentration Io, and Eo is initial enzyme concentration. When the substrate concentration S<<Km, Ki^app is approximately equal to Ki.

[2] = molecular target: T1, ADAM33; test: MCF 12-mer peptide proteolysis assay (HPLC); format: biochemical; details: for ADAM33 activity in the presence of inhibitor: 1 mM inhibitor
Protocol: A 12-mer peptide (i.e. Ac-LPPVAASSLNRD-NH2; SEQ ID NO: 48), derived from human mast-cell growth factor (accession number NP-038626) was synthesized as a substrate for ADAM33. Reactions were initiated by addition of 200 nM enzyme to appropriate amounts of substrate in assay buffer (25 mM HEPES, pH 7.5, 0.5 M NaCl, 0.1% n-octyl-β-D-glucoside), incubated at 22° C. for 2 h and subsequently quenched with 1% TFA. When inhibitors were evaluated, the enzyme and inhibitors were preincubated at 22° C. for 30 min prior to initiation of the assays. Substrate and products were separated by HPLC using a C-8 reverse phase column (Zobrax 3.5 μm, 4.6 mmD/5 cmL, Agilent, Palo Alto, Calif., 0.1% TFA acetonitrile/H2O). Elution was monitored at 214 nm, and peaks identified by mass spectroscopy. Initial rates of proteolysis were determined using reactions in which less than 10% of the substrate was consumed. kcat/Km values were calculated assuming the enzymes were 100% active.
Production of ADAM33 and mutants thereof were produced essentially as described in Example 1. Proteolytic assays and methods for determining catalytic rates are essentially as described in Examples 2 and 3.

[3] = molecular target: T1, ADAM33; test: HPLC peptide substrate cleavage assay with ADAM33; format: biochemical; details: for cleavage site of peptide: identified by MALDI-TOF MS; for cleavage of peptide by ADAM33: peptide 50 μM, ADAM33 0.1–0.5 μM, 2 h RT
Protocol: (§1) The peptide substrate (50 μM) was incubated with or without ADAM33 (0.1–0.5 μM) in assay buffer (20 mM HEPES, pH 7.5, 0.5 M NaCl, 0.2 mg/ml bovine serum albumin (BSA)) for 2 hours (h) at room temperature (RT) in the presence or absence of various inhibitors [5 mM 1, 10-phenanthroline, or a protease inhibitor cocktail (2 μg/ml leupeptin, 0.4 μM benzamidine, 10 μg/ml soybean trypsin inhibitor and 0.5 mM iodoacetamide)]. The reaction was stopped by adding 10% trifluoroacetic acid (TFA) to a final concentration of 1% and samples were analyzed on Agilent HPLC model 1100 with C8 column. Solvents were: A, 0.1% TFA in water; B, 0.09% TFA in acetonitrile. A linear gradient from 2 to 42% B was run over 7 min at 1.5 ml/min and the eluate was monitored at 214 nm. The percentage of peptide cleavage was calculated using the peak area of the cleaved products divided by the sum of the peak areas of both the products and the remaining substrate. The cleavage sites of the peptide were identified by matrix-assisted laser-desorption/ionization time-of-flight (MALDI-TOF) mass spectrometry.
(§2) Specificity constants of peptide substrates, APP and KL-1, were obtained by using the HPLC assay described above. In brief, ADAM33cat (80 nM) was incubated with peptide substrate (30–2000 μM) in assay buffer for 10–60 min at RT. Reactions were timed to allow less than 15% turnover of the substrate. The initial cleavage velocities of the peptides were obtained by plotting cleaved product versus reaction time. The specificity constants, kcat/Km, were determined based on best fit of the data with the Michaelis-Menten equation when substrate concentration S<<Km.

[4] = substrate: CC(C)C[C@H](NC(=O)[C@H](CCCCN)NC(=O)[C@H](CCC(N)=O)NC(=O)[C@H](Cc1c[nH]cn1)NC(=O)[C@H](Cc1c[nH]cn1)NC(=O)[C@@H](NC(=O)[C@H](CCC(=O)O)NC(=O)[C@@H](N)Cc1ccc(O)cc1)C(C)C)C(=O)N[C@H](C(=O)N[C@@H](Cc1ccccc1)C(=O)O)C(C)C; test: HPLC peptide substrate cleavage assay with ADAM33; format: biochemical, human; details: other: ADAM33cat 80 nM, turnover <15%; pH 7.5
Protocol: as §1, §2

[5] = substrate: CC(C)C[C@H](NC(=O)[C@H](CO)NC(=O)[C@H](CO)NC(=O)[C@H](C)NC(=O)[C@H](C)NC(=O)[C@@H](NC(=O)[C@@H]1CCCN1C(=O)[C@@H]1CCCN1)C(C)C)C(=O)N[C@@H](CCCNC(=N)N)C(=O)N[C@@H](CC(N)=O)C(=O)O; test: HPLC peptide substrate cleavage assay with ADAM33; format: biochemical, human; details: other: ADAM33cat 80 nM, turnover <15%; pH 7.5
Protocol: as §1, §2

[6] = Thermal denaturation monitored by circular dichroism (220 nm); format: physicochemical
Protocol: The effect of CaCl2 on the stability of the ADAM33 N231Q catalytic domain as determined by thermal denaturation: The effect of the concentration of CaCl2 on the retention of the secondary structure of the ADAM33 N231 Q catalytic domain was monitored by circular dichroism (λ220 nm) as a function of temperature. A parallel study was performed replacing the CaCl2 with NaCl to control for the effect of the corresponding increase in ionic strength. The ADAM33 N231Q catalytic domain was purified as described above and then diluted to 0.2 mg/ml. The sample was then dialyzed against 25 mM Hepes, pH 7.5, 5% glycerol overnight. The temperature dependent protein denaturation was performed using a JASCO 810 spectropolarimeter under the following conditions: • Protein concentration: 0.2 mg/ml (based on a BioRad Protein Assay) • Cell length: 0.1 cm • Monitor wavelength: 220 nm • Temperature slope: 2° C./min • Measurement range: 20–80° C.

CNC(=O)[C@@H](NC(=O)[C@H](CC(C)C)[C@H](O)C(=O)NO)C(C)(C)C [Marimastat, N4-[2,2-dimethyl-1(S)-[(methylamino)carbonyl]propyl]-N1,2(S)-dihydroxy-3(R)-(2-methylpropyl) butanediamide]
Ki [1]: 0.157 ± 0.038 µM

O=C(O)CN(CCN(CC(=O)O)CC(=O)O)CC(=O)O [EDTA]
ADAM33 activity in the presence of inhibitor [2]: completely abolished

c1cnc2c(c1)ccc1cccnc12 [1,10-phenanthroline]
ADAM33 activity in the presence of inhibitor [2]: completely abolished

insulin B chain: peptide substrate HLVEALYLVC; SEQ ID NO: 45 (insulin B chain peptide)
cleavage site of peptide [3]: A*L
cleavage of peptide by ADAM33 [3]: cleaved

TRANCE: peptide substrate VGSQHIRAEK; SEQ ID NO: 44 (TRANCE Peptide)
cleavage site of peptide [3]: H*I
cleavage of peptide by ADAM33 [3]: cleaved

CC(C)CC(CC(=O)NO)C(=O)N[C@H](C(=O)N[C@@H](C)C(=O)NCCN)C(C)(C)C (mixture of isomers) [Immunex compound 1, N-{DL-[2-(hydroxyamino-carbonyl)methyl]4-methylpentanoyl}-L-3-(tertbutyl)glycyl-L-alanine,2-aminoethylamide]
Ki [1]: 2.85 ± 0.152 µM

Ac-LPPVAASSLNRD-NH2 [MCF substrate peptide]
cleavage site of MCF peptide by wild-type ADAM33 [2]: between the residues corresponding to Ala-190 and Ser-191
Km ([2]; 200 nM enzyme, 10–500 μM substrate, room temperature): > 500 µM

B1: ADAM33 (Homo sapiens) (protein)
chain: T1 sequence (Q9BZ11 204-409 limits assumed)
notes: made in house; host or cells: Drosophila melanogaster S2 cells
Km [4]: 1000 ± 100 µM
kcat [4]: 0.2 ± 0.1 s⁻¹
kcat/Km [4]: (1.6±0.3)×10^2 M^−1 s^−1
Km [5]: 3000 ± 100 µM
kcat [5]: 0.7 ± 0.1 s⁻¹
kcat/Km [5]: (2.6±0.5)×10^2 M^−1 s^−1

B2: ADAM33 N231Q: modified ADAM33 catalytic domain N231Q, SEQ ID NO: 8 with C-terminal Ser-Gly His6 Tag (protein)
chain: T1 sequence (Q9BZ11 204-409 limits assumed) with N28Q
modifications: C-terminal Ser-Gly His6 tag; homo sapiens
Denaturation Temp. ([6]; CaCl2 0 mM): 43.5 °C
ΔDenaturation Temp. ([6]; CaCl2 0 mM): 0.0 °C
Denaturation Temp. ([6]; CaCl2 0.003 mM): 50.6 °C
ΔDenaturation Temp. ([6]; CaCl2 0.003 mM): 7.1 °C
Denaturation Temp. ([6]; CaCl2 0.03 mM): 52.9 °C
ΔDenaturation Temp. ([6]; CaCl2 0.03 mM): 9.4 °C
Denaturation Temp. ([6]; CaCl2 0.3 mM): 53.9 °C
ΔDenaturation Temp. ([6]; CaCl2 0.3 mM): 10.4 °C
Denaturation Temp. ([6]; CaCl2 0.5 mM): 56.9 °C
ΔDenaturation Temp. ([6]; CaCl2 0.5 mM): 13.4 °C
Denaturation Temp. ([6]; CaCl2 1.0 mM): 57.9 °C
ΔDenaturation Temp. ([6]; CaCl2 1.0 mM): 14.4 °C
Denaturation Temp. ([6]; CaCl2 2.5 mM): 60.6 °C
ΔDenaturation Temp. ([6]; CaCl2 2.5 mM): 17.1 °C
Denaturation Temp. ([6]; CaCl2 5.0 mM): 61.5 °C
ΔDenaturation Temp. ([6]; CaCl2 5.0 mM): 18.0 °C
Denaturation Temp. ([6]; CaCl2 10.0 mM): 63.3 °C
ΔDenaturation Temp. ([6]; CaCl2 10.0 mM): 19.8 °C
Denaturation Temp. ([6]; CaCl2 25.0 mM): 64.6 °C
ΔDenaturation Temp. ([6]; CaCl2 25.0 mM): 21.1 °C
Denaturation Temp. ([6]; CaCl2 50.0 mM): 65.6 °C
ΔDenaturation Temp. ([6]; CaCl2 50.0 mM): 22.1 °C
Denaturation Temp. ([6]; CaCl2 100.0 mM): 65.2 °C
ΔDenaturation Temp. ([6]; CaCl2 100.0 mM): 21.7 °C

B3: CAT domain: purified catalytic (protease) domain of human ADAM33 (protein)
chain: EARRTRKYLELYIVADHTLFLTRHRNLNHTKQRLLEVANYVDQLLRTLDIQVALTGLEVWTERDRSRVTQDANATLWAFLQWRRGLWAQRPHDSAQLLTGRAFQGATVGLAPVEGMCRAESSGGVSTDHSELPIGAAATMAHEIGHSLGLSHDPDGCCVEAAAESGGCVMAAATGHPFPRVFSACSRRQLRAFFRKGGGACLSNAPSGHHHHHH
catalytic efficiency ([2]; MCF peptide substrate, estimated): 2.6±0.5)×10^2 M^−1 s^−1
